US20150276762A1 (NVH MEDICINAL, published 2015)

Tests used:
[1] = target: plasma von Willebrand factor of type 1 von Willebrand disease patients (human) (UniProt P04275); test: ELISA, coated at 2 µg/ml, plasma of Patient 3 (Type 1)
[2] = target: plasma von Willebrand factor of type 1 von Willebrand disease patients (human) (UniProt P04275); test: ELISA, coated at 2 µg/ml, plasma of Patient 5 (Type 1); collagen-binding activity over vWF antigen
[3] = target: plasma von Willebrand factor of type 2 von Willebrand disease patients (Table I) (human) (UniProt P04275); test: ELISA, coated at 2 µg/ml, plasma of Patient 6 (Type 2); collagen-binding activity over vWF antigen
[4] = target: plasma von Willebrand factor of type 1 von Willebrand disease patients (human) (UniProt P04275); test: ELISA, coated at 2 µg/ml, plasma of Patient 4 (Type 1)
[5] = target: plasma von Willebrand factor of type 2 von Willebrand disease patients (Table I) (human) (UniProt P04275); test: ELISA, coated at 2 µg/ml, plasma of Patient 7 (Type 2)
[6] = target: plasma von Willebrand factor of type 1 von Willebrand disease patients (human) (UniProt P04275); test: ELISA, coated at 2 µg/ml, plasma of Patient 5 (Type 1)
[7] = target: plasma von Willebrand factor of type 2 von Willebrand disease patients (Table I) (human) (UniProt P04275); test: ELISA, coated at 2 µg/ml, plasma of Patient 8 (Type 2)
[8] = target: plasma von Willebrand factor of type 2 von Willebrand disease patients (Table I) (human) (UniProt P04275); test: ELISA, coated at 2 µg/ml, plasma of Patient 6 (Type 2)
[9] = target: plasma von Willebrand factor of type 2 von Willebrand disease patients (Table I) (human) (UniProt P04275); test: ELISA, coated at 2 µg/ml, plasma of Patient 8 (Type 2); collagen-binding activity over vWF antigen
[10] = target: plasma von Willebrand factor of type 1 von Willebrand disease patients (human) (UniProt P04275); test: ELISA, coated at 2 µg/ml, plasma of Patient 4 (Type 1); collagen-binding activity over vWF antigen
[11] = target: plasma von Willebrand factor of type 2 von Willebrand disease patients (Table I) (human) (UniProt P04275); test: ELISA, coated at 2 µg/ml, plasma of Patient 7 (Type 2); collagen-binding activity over vWF antigen
[12] = target: plasma von Willebrand factor of type 1 von Willebrand disease patients (human) (UniProt P04275); test: ELISA, coated at 2 µg/ml, plasma of Patient 3 (Type 1); collagen-binding activity over vWF antigen
[13] = target: T1, plasma von Willebrand factor of a patient suspected of having anti-vWF antibody (mimicking type III) (human, UniProt P04275 764-2813, limits assumed); test: ELISA, coated at 2 µg/ml, plasma of Patient 9 (vWF activity); collagen-binding activity over vWF antigen
T1 construct: Almost no vWF antigen in this plasma; also called Patient 9; vWF activity
Protocol: (§1) To that end, 100 μl of a solution containing the polypeptide at 2 or 10 μg/ml in phosphate buffer or any other suitable buffer is added in each well and incubated at 22° C. for 18 to 20 hours. After three washes with 200 μl of PBS-0.05% Tween, 200 μl of 1% BSA in phosphate buffer solution (Euromedex, 0.45 μm filter) is added in each well and incubated for 2 hours at room temperature (22° C.). After three washes with 200 μl of PBS-0.05% Tween, 100 μl of various concentrations (expressed in IU/dl) of purified von Willebrand factor (Wilfactin, 100 IU/ml, LFB) and/or of patient plasma diluted in phosphate buffer or any other suitable buffer is incubated for 1.5 hours at room temperature (22° C.). After three new washes, 100 μl of a solution containing a primary anti-vWF antibody coupled with horseradish peroxidase (rabbit anti-human vWF/HRP, DAKO) diluted to 1/8000 in phosphate buffer or any other suitable buffer is incubated for 1 hour at 22° C. and then washed 4 times as described above. 125 μl of tetramethylbenzidine solution (TMB, Sigma) as peroxidase substrate is added and then incubation is carried out in the dark for 10 to a maximum of 45 minutes. The reaction is quenched by adding 125 μl of 2 N HCl (Sigma). Absorbance is quickly measured at 450 nm in a spectrophotometer (Wallac Victor 3). […]

[14] = target: T2, plasma von Willebrand factor of healthy patients / control (reference) plasma (human, UniProt P04275 764-2813); test: ELISA, coated at 2 µg/ml, plasma of Patient 1 (Normal); collagen-binding activity over vWF antigen
T2 construct: Unpurified, in diluted plasma; The read-out also depends on the amount of vWF in the plasma; also called Normal; Controls
Protocol: as §1

[15] = target: T2, plasma von Willebrand factor of healthy …; test: ELISA, coated at 2 µg/ml, plasma of Patient 2 (Normal); collagen-binding activity over vWF antigen
Protocol: as §1

Row | Mean CB % [1] [%] | CB/Ag ratio [2] | CB/Ag ratio [3] | Mean CB % [4] [%] | Mean CB % [5] [%] | Mean CB % [6] [%] | Mean CB % [7] [%] | Mean CB % [8] [%] | CB/Ag ratio [9] | CB/Ag ratio [10] | CB/Ag ratio [11] | CB/Ag ratio [12] | CB/Ag ratio [13] | CB/Ag ratio [14] | CB/Ag ratio [15] | Molecule
1 | 37 | 0.77 | 0.74 | 24 | 19 | 17 | 24 | 17 | 0.89 | 1.41 | 0.48 | 0.82 |  |  |  | type III collagen (BD Biosciences), used as a reference (from UniProt P02461 154-1221)
2 |  |  |  |  |  |  |  |  |  |  |  |  | 0 | 1.4 | 1.22 | type III collagen (BD Biosciences), used as a reference (other, human, UniProt P02461 154-1221, looked up, also called native type III collagen) QYDSYDVKSGVAVGGLAGYPGPAGPPGPPGPPGTSGHPGSPGSPGYQGPPGEPGQAGPSGPPGPPGAIGPSGPAGKDGESGRPGRPGERGLPGPPGIKGPAGIPGFPGMKGHRGFDGRNGEKGETGAPGLKGENGLPGENGAPGPMGPRGAPGERGRPGLPGAAGARGNDGARGSDGQPGPPGPPGTAGFPGSPGAKGEVGPAGSPGSNGAPGQRGEPGPQGHAGAQGPPGPPGINGSPGGKGEMGPAGIPGAPGLMGARGPPGPAGANGAPGLRGGAGEPGKNGAKGEPGPRGERGEAGIPGVPGAKGEDGKDGSPGEPGANGLPGAAGERGAPGFRGPAGPNGIPGEKGPAGERGAPGPAGPRGAAGEPGRDGVPGGPGMRGMPGSPGGPGSDGKPGPPGSQGESGRPGPPGPSGPRGQPGVMGFPGPKGNDGAPGKNGERGGPGGPGPQGPPGKNGETGPQGPPGPTGPGGDKGDTGPPGPQGLQGLPGTGGPPGENGKPGEPGPKGDAGAPGAPGGKGDAGAPGERGPPGLAGAPGLRGGAGPPGPEGGKGAAGPPGPPGAAGTPGLQGMPGERGGLGSPGPKGDKGEPGGPGADGVPGKDGPRGPTGPIGPPGPAGQPGDKGEGGAPGLPGIAGPRGSPGERGETGPPGPAGFPGAPGQNGEPGGKGERGAPGEKGEGGPPGVAGPPGGSGPAGPPGPQGVKGERGSPGGPGAAGFPGARGLPGPPGSNGNPGPPGPSGSPGKDGPPGPAGNTGAPGSPGVSGPKGDAGQPGEKGSPGAQGPPGAPGPLGIAGITGARGLAGPPGMPGPRGSPGPQGVKGESGKPGANGLSGERGPPGPQGLPGLAGTAGEPGRDGNPGSDGLPGRDGSPGGKGDRGENGSPGAPGAPGHPGPPGPVGPAGKSGDRGESGPAGPAGAPGPAGSRGAPGPQGPRGDKGETGERGAAGIKGHRGFPGNPGAPGSPGPAGQQGAIGSPGPAGPRGPVGPSGPPGKDGTSGHPGPIGPPGPRGNRGERGSEGSPGHPGQPGPPGPPGAPGPCCGGVGAAAIAGIGGEKAGGFAPYYG
